Series [1] deals with the molecule itself. Description: cryo-EM structure; 35 μM Vipp1 mixed with pre-formed rat Dynamin 1 filaments (to keep the ice thick) and vitrified; rings of C11 to C17 symmetry reconstructed.
Series [2] deals with the molecule itself. Description: cross-linking; cysteine cross-linking: 5 μM protein in 25 mM Tris-HCl pH 8.4, 50 mM NaCl with CuP or 5 μM MTS-4, 1 h at room temperature; rescue with 10 mM DTT; SDS-PAGE.
Series [3] concerns the molecule itself. Briefly: SEC + other: negative stain EM; filament assembly assay: Sephacryl 16/60 S500 gel filtration in 25 mM Tris-HCl pH 8.4, 50 mM NaCl; void volume, peak 1 and peak 2 analysed by SDS-PAGE and negative stain EM. Background: Size exclusion chromatography separates by hydrodynamic size, large species first.

Several values for one entry are separate records, joined by “and”; a condition that tells them apart may be missing. Identical values can stand only once.

B1: Vipp1/IM30 from Nostoc punctiforme, full-length (amino acids 1–258) (natural protein, UniProt B2J6D9 1-258, looked up)
chain: MGLFDRIKRVVSSNLNDLVNKAEDPEKMLEQAILEMQEDLVQLRQGVAQAIAAQKRSEKQYNDAQNEINKWQRNAQLALQKGDENLARQALERKKTYTDTSAALKASLDTQSTQVETLKRNLIQLESKISEAKTKKEMLKARITTAKAQEQLQGMVRGMNTSSAMSAFERMEEKVLMQESRAQALGELAGADLETQFAQLEGGSDVDDELAALKAQMLPPATPVTQAQLPPQQETTPAKSNEVVDAELDSLRKQLDQL
notes: Vipp1/IM30, Nostoc punctiforme, UniProt B2J6D9, amino acids 1-258, 28.7 kDa; His6 sits on the MBP moiety and leaves with it on TEV cleavage; also called native Vipp1; WT; not shown: MBP, N-terminal, cleaved; His6, N-terminal, cleaved
Regarding B1, the “stoichiometry N” value in series [1] is 84 subunits and 55 subunits to 119 subunits (2×).

B2: Vipp1_(L86C/L193C) (natural protein, Nostoc punctiforme, UniProt B2J6D9 1-258, looked up)
chain: MGLFDRIKRVVSSNLNDLVNKAEDPEKMLEQAILEMQEDLVQLRQGVAQAIAAQKRSEKQYNDAQNEINKWQRNAQLALQKGDENCARQALERKKTYTDTSAALKASLDTQSTQVETLKRNLIQLESKISEAKTKKEMLKARITTAKAQEQLQGMVRGMNTSSAMSAFERMEEKVLMQESRAQALGELAGADCETQFAQLEGGSDVDDELAALKAQMLPPATPVTQAQLPPQQETTPAKSNEVVDAELDSLRKQLDQL
notes: Vipp1/IM30, Nostoc punctiforme, UniProt B2J6D9, with the cysteine pair L86C and L193C; Plasmid pOPTM/Vipp1_(L86C/L193C); The legend notes some uncleaved MBP-Vipp1 in the gel; also called L193C and L86C mutants; not shown: MBP, N-terminal, cleaved; His6, N-terminal, cleaved
As to B2, the binding result in series [2] is listed as “binds”.

B3: Vipp1Δα6_(1–219) (domain or fragment, Nostoc punctiforme, UniProt B2J6D9 1-219, looked up)
chain: MGLFDRIKRVVSSNLNDLVNKAEDPEKMLEQAILEMQEDLVQLRQGVAQAIAAQKRSEKQYNDAQNEINKWQRNAQLALQKGDENLARQALERKKTYTDTSAALKASLDTQSTQVETLKRNLIQLESKISEAKTKKEMLKARITTAKAQEQLQGMVRGMNTSSAMSAFERMEEKVLMQESRAQALGELAGADLETQFAQLEGGSDVDDELAALKAQMLP
notes: Vipp1/IM30, Nostoc punctiforme, UniProt B2J6D9, residues 1-219; lacks the C-terminal extension with helix α6 (aa 220-258); Plasmid pOPTM/Vipp1Δα6_(1-219); not shown: MBP, N-terminal, cleaved; His6, N-terminal, cleaved
B3: the binding result in series [3] is on record as “binds”.

What is called stoichiometry N is the number of molecules, sites or subunits per partner or assembly.

Values taken from publication PMC8281802, “Bacterial Vipp1 and PspA are members of the ancient ESCRT-III membrane-remodeling superfamily” (Cell, 2021).
